Measurements as given in article PMC10786891, “Massively parallel profiling of RNA-targeting CRISPR-Cas13d”.
Numbering of substitutions follows the chain as printed. Numbers in names are those of the source.

T1: EsCas13d, nuclease-dead (Eubacterium siraeum, UniProt B0MS50, R295A;H300A;R849A;H854A)
T1 sequence: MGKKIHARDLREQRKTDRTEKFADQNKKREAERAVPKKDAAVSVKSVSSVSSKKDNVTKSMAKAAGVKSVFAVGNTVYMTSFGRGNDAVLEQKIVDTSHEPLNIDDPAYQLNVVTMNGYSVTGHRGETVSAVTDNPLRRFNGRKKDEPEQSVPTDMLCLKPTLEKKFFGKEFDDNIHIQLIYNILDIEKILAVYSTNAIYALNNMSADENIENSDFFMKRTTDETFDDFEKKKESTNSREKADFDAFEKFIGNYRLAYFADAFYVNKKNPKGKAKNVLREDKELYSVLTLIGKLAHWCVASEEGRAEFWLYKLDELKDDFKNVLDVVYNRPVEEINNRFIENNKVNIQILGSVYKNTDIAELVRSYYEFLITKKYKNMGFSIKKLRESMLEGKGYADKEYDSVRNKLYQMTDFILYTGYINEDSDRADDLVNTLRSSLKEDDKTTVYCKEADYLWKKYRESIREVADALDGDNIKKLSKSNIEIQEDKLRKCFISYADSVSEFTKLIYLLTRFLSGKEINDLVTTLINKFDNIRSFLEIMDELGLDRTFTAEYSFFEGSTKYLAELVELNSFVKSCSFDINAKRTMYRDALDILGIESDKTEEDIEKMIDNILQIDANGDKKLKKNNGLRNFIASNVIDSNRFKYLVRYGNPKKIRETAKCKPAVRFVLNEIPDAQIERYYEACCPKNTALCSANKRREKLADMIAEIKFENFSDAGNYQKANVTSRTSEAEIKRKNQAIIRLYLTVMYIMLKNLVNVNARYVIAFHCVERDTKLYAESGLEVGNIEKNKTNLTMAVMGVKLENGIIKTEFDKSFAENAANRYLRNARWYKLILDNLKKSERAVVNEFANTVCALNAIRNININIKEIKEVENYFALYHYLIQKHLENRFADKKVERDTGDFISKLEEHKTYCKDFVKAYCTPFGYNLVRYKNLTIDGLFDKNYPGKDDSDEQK

B1: target 1 G12A,A14C (mixed)
RNA 1: CACCCGUGCAAAAAUGCAGGGGUCUAAAACUGAGCGGAUAACCUCUCUAUGG
RNA 2: GGGAAUGGAUCCACAUCUACGAAUUCGUACCAUAGAGCGAUUAUCCGCUCACCGAGAUCGGAAGAGCACACGU
B2: target 1 insG 3' of 9,insG 3' of 4 (mixed)
RNA 1: B1 RNA 1
RNA 2: GGGAAUGGAUCCACAUCUACGAAUUCGUACCAUAGAGAGGUUAGUCCGCGUCACCGAGAUCGGAAGAGCACACGU
B3: target 1 insG 3' of 9,insC 3' of 5 (mixed)
RNA 1: B1 RNA 1
RNA 2: B2 RNA 2 with G50C
B4: target 1 C6A,U8G (mixed)
RNA 1: B1 RNA 1
RNA 2: B1 RNA 2 with C38A, A40G, U44G, C46A
B5: target 1 G13A,A14C (mixed)
RNA 1: B1 RNA 1
RNA 2: B1 RNA 2 with G39A, A40G
B6: target 1 insC 3' of 19,insU 3' of 5 (mixed)
RNA 1: B1 RNA 1
RNA 2: GGGAAUGGAUCCACAUCUACGAAUUCGUACCAUCAGAGAGGUUAUCCGUCUCACCGAGAUCGGAAGAGCACACGU
B7: target 1 insA 3' of 22,insU 3' of 5 (mixed)
RNA 1: B1 RNA 1
RNA 2: B6 RNA 2 with C31A, A32C, U33A, C34U
B8: target 1 insC 3' of 19,insA 3' of 15 (mixed)
RNA 1: B1 RNA 1
RNA 2: B6 RNA 2 with G40A, U42G, A44U, U45A, C46U, G48C, U49G
B9: target 1 insA 3' of 12,insA 3' of 11 (mixed)
RNA 1: B1 RNA 1
RNA 2: B2 RNA 2 with U41A, G44U, U45A, C46U, G48C, C49G, G50C
B10: target 1 G5A,G15C (mixed)
RNA 1: B1 RNA 1
RNA 2: B1 RNA 2 with G37C, C38A, A40G, G47A
B11: target 1 U11C,A20U (mixed)
RNA 1: B1 RNA 1
RNA 2: B1 RNA 2 with A32U, C38A, A40G, U41C
B12: target 1 G13U,G15U (mixed)
RNA 1: B1 RNA 1
RNA 2: B1 RNA 2 with G37U, C38A, G39U, A40G
B13: target 1 G5C,C21A (mixed)
RNA 1: B1 RNA 1
RNA 2: B1 RNA 2 with C31A, C38A, A40G, G47C
B14: target 1 C6A,U19G (mixed)
RNA 1: B1 RNA 1
RNA 2: B1 RNA 2 with U33G, C38A, A40G, C46A
B15: target 1 insU 3' of 22,insA 3' of 22 (mixed)
RNA 1: B1 RNA 1
RNA 2: GGGAAUGGAUCCACAUCUACGAAUUCGUACUACAUAGAGAGGUUAUCCGCUCACCGAGAUCGGAAGAGCACACGU
B16: target 1 G13A,G15U (mixed)
RNA 1: B1 RNA 1
RNA 2: B1 RNA 2 with G37U, C38A, G39A, A40G
B17: target 1 insG 3' of 10,insG 3' of 8 (mixed)
RNA 1: B1 RNA 1
RNA 2: B2 RNA 2 with A43G, G44A, C46G, G48C, C49G, G50C
B18: target 1 insG 3' of 6,insG 3' of 4 (mixed)
RNA 1: B1 RNA 1
RNA 2: B2 RNA 2 with G44U, U45C, C47G
B19: target 1 insC 3' of 19,insU 3' of 6 (mixed)
RNA 1: B1 RNA 1
RNA 2: B6 RNA 2 with G48U, U49G
B20: target 1 insA 3' of 7,insU 3' of 5 (mixed)
RNA 1: B1 RNA 1
RNA 2: B2 RNA 2 with G44U, U45C, C46A, C49U, G50C
B21: target 1 insU 3' of 17,insC 3' of 5 (mixed)
RNA 1: B1 RNA 1
RNA 2: B6 RNA 2 with C34A, A35G, G36U, U49C
B22: target 1 insA 3' of 3,insA 3' of 3 (mixed)
RNA 1: B1 RNA 1
RNA 2: B2 RNA 2 with G44U, U45C, C47G, G48C, C49U, G50A, U51A
B23: target 1 insU 3' of 22,insC 3' of 3 (mixed)
RNA 1: B1 RNA 1
RNA 2: B6 RNA 2 with C31U, A32C, U33A, C34U, U49C, C50U, U51C
B24: target 1 A1G,U11G (mixed)
RNA 1: B1 RNA 1
RNA 2: B1 RNA 2 with C38A, A40G, U41G, A51G
B25: target 1 complement block 14-16 (mixed)
RNA 1: B1 RNA 1
RNA 2: B1 RNA 2 with A36U, G37C, C38U, A40G
B26: target 1 insC 3' of 13,insU 3' of 12 (mixed)
RNA 1: B1 RNA 1
RNA 2: B15 RNA 2 with U31C, C33U, U35G, A40C, G42U
B27: target 1 insU 3' of 21,insU 3' of 21 (mixed)
RNA 1: B1 RNA 1
RNA 2: B15 RNA 2 with U31C, A32U, C33U
B28: target 1 insG 3' of 16,insA 3' of 6 (mixed)
RNA 1: B1 RNA 1
RNA 2: B6 RNA 2 with C34A, A35G, G36A, A37G, G48A, U49G
B29: target 1 C4G,G12C (mixed)
RNA 1: B1 RNA 1
RNA 2: B1 RNA 2 with C38A, A40C, C48G
B30: target 1 insC 3' of 14,insU 3' of 7 (mixed)
RNA 1: B1 RNA 1
RNA 2: B2 RNA 2 with G39C, U41G, A43U, G44A, C47U, G48C, C49G, G50C
B31: target 1 insA 3' of 22,insU 3' of 6 (mixed)
RNA 1: B1 RNA 1
RNA 2: B6 RNA 2 with C31A, A32C, U33A, C34U, G48U, U49G
B32: target 1 C7A,U8A (mixed)
RNA 1: B1 RNA 1
RNA 2: B1 RNA 2 with C38A, A40G, U44A, C45A
B33: target 1 insG 3' of 7,insC 3' of 5 (mixed)
RNA 1: B1 RNA 1
RNA 2: B2 RNA 2 with G44U, U45C, C46G, G50C

target: T1, EsCas13d, nuclease-dead; assay: crRNA (strand 1, pre-loaded); Mg2+; 40 mM Tris-HCl pH 7.5, 150 mM NaCl, 6 mM MgCl2, 1 mM DTT, 0.1% Tween-20, 0.2 mg/ml BSA; 25 C; 10 min per concentration, then washed; conditions: tags: His6-TwinStrep-SUMO cleaved; N-terminal SNAP kept (SNAP-Surface 488); label: 3' end held by stalled T7 RNA polymerase

Row | Binder | Kd
1 | B1 | 30.5 ± 2.6 nM
2 | B2 | 8.9 ± 0.6 nM
3 | B3 | 11.3 ± 0.5 nM
4 | B4 | 12.8 ± 0.7 nM
5 | B5 | 12 ± 0.7 nM
6 | B6 | 39 ± 13 nM
7 | B7 | 28 ± 7 nM
8 | B8 | 36 ± 4 nM
9 | B9 | 29 ± 5 nM
10 | B10 | 54 ± 17 nM
11 | B11 | 55 ± 7 nM
12 | B12 | 55 ± 19 nM
13 | B13 | 27 ± 5 nM
14 | B14 | 46 ± 4 nM
15 | B15 | 4.11 ± 0.31 nM
16 | B16 | 80 ± 40 nM
17 | B17 | 21.8 ± 0.7 nM

Row | Binder | Kd
18 | B18 | 8 ± 0.4 nM
19 | B19 | 46.6 ± 2.9 nM
20 | B20 | 11.4 ± 0.33 nM
21 | B21 | 60 ± 14 nM
22 | B22 | 7.5 ± 0.6 nM
23 | B23 | 28 ± 6 nM
24 | B24 | 23.8 ± 1.6 nM
25 | B25 | 61 ± 9 nM
26 | B26 | 11.1 ± 0.4 nM
27 | B27 | 72 ± 13 nM
28 | B28 | 15 ± 0.6 nM
29 | B29 | 18 ± 4 nM
30 | B30 | 41 ± 8 nM
31 | B31 | 13.6 ± 0.6 nM
32 | B32 | 7.41 ± 0.23 nM
33 | B33 | 9.8 ± 0.6 nM
